Data set [1] deals with HeLa Kyoto. Description: thermal stability score vs G1/S (z-score of summed log2 fold changes over temperatures); higher = more thermally stable than in G1/S.
For data set [2], the system named is HeLa Kyoto. The data set can be described thus: solubility in G1/S (NP-40 vs SDS abundance) (log2 ratio); higher = more soluble. The conditions noted are these: cell cycle stage: G1/S.
In data set [3] the test system is HeLa Kyoto. Description: melting temperature (median over replicates), in situ; higher = more thermally stable.
In data set [4] the test system is HeLa Kyoto. Description: solubility change mitosis vs G1/S (difference of NP-40 vs SDS log2 ratios) (log2 ratio difference); higher = more soluble in mitosis.
Where [5] appears, read: cell cycle stage: early G1 (4.5 h after nocodazole release).

This is an account of results in the supplement of paper PMC5998384.
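Throughout, for melting temperature (median over replicates), in situ: HeLa Kyoto cells synchronized by double thymidine or nocodazole block, proteins quantified by TMT10plex mass spectrometry, three independent biological replicates.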
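Throughout, for solubility change mitosis vs G1/S (difference of NP-40 vs SDS log2 ratios): synchronized HeLa Kyoto cells (double thymidine block for G1/S, nocodazole release for mitosis), protein amounts in NP-40 versus SDS lysates quantified by mass spectrometry, three biological replicates.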
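Throughout, for solubility in G1/S (NP-40 vs SDS abundance): HeLa Kyoto cells arrested at G1/S by double thymidine block, proteins quantified by TMT10plex mass spectrometry in mild NP-40 versus SDS extracts, three biological replicates.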
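Throughout, for thermal stability score vs G1/S (z-score of summed log2 fold changes over temperatures): synchronized HeLa Kyoto cells, proteins quantified by TMT10plex mass spectrometry, three biological replicates, mitosis taken 0.5 h after nocodazole release, G1/S directly after double thymidine block.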

As for “MKRSSVSSGGAGRLSMQELRSQDVNKQGLYTPQTKEKPTFGKLSINKPTSERKVSLFGKRTSGHGSRNSQLGIFSSSEKIKDPRPLNDKAFIQQCIRQLCEFLTENGYAHNVSMKSLQAPSVKDFLKIFTFLYGFLCPSYELPDTKFEEEVPRIFKDLGYPFALSKSSMYTVGAPHTWPHIVAALVWLIDCIKIHTAMKESSPLFDDGQPWGEETEDGIMHNKLFLDYTIKCYESFMSGADSFDEMNAELQSKLKDLFNVDAFKLESLEAKNRALNEQIARLEQEREKEPNRLESLRKLKASLQGDVQKYQAYMSNLESHSAILDQKLNGLNEEIARVELECETIKQENTRLQNIIDNQKYSVADIERINHERNELQQTINKLTKDLEAEQQKLWNEELKYARGKEAIETQLAEYHKLARKLKLIPKGAENSKGYDFEIKFNPEAGANCLVKYRAQVYVPLKELLNETEEEINKALNKKMGLEDTLEQLNAMITESKRSVRTLKEEVQKLDDLYQQKIKEAEEEDEKCASELESLEKHKHLLESTVNQGLSEAMNELDAVQREYQLVVQTTTEERRKVGNNLQRLLEMVATHVGSVEKHLEEQIAKVDREYEECMSEDLSENIKEIRDKYEKKATLIKSSEE [NDC80]”, the values for the thermal stability score in data set [1] (setting [5]) and in data set [1] (cell cycle stage: mitosis) were 0.223 and 0.715, respectively. Also, in data set [2], the “solubility in G1/S (log2)” value worked out at 0.548. The melting temperature in data set [3] (cell cycle stage: G1/S) was 47.4 °C; in data set [3] (cell cycle stage: mitosis), 47.7 °C. Besides, the “solubility change mitosis (log2)” value in data set [4] is 0.0863.

For “MKRSVAVWLLVGLSLGVPQFGKGDICDPNPCENGGICLPGLADGSFSCECPDGFTDPNCSSVVEVASDEEEPTSAGPCTPNPCHNGGTCEISEAYRGDTFIGYVCKCPRGFNGIHCQHNINECEVEPCKNGGICTDLVANYSCECPGEFMGRNCQYKCSGPLGIEGGIISNQQITASSTHRALFGLQKWYPYYARLNKKGLINAWTAAENDRWPWIQINLQRKMRVTGVITQGAKRIGSPEYIKSYKIAYSNDGKTWAMYKVKGTNEDMVFRGNIDNNTPYANSFTPPIKAQYVRLYPQVCRRHCTLRMELLGCELSGCSEPLGMKSGHIQDYQITASSIFRTLNMDMFTWEPRKARLDKQGKVNAWTSGHNDQSQWLQVDLLVPTKVTGIITQGAKDFGHVQFVGSYKLAYSNDGEHWTVYQDEKQRKDKVFQGNFDNDTHRKNVIDPPIYARHIRILPWSWYGRITLRSELLGCTEEE [EDIL3]”, the thermal stability score is 1.05 in data set [1] (setting [5]) and 0.661 in data set [1] (cell cycle stage: mitosis). Further, the “solubility in G1/S (log2)” value in data set [2] is -0.122. The sequence further showed a melting temperature in data set [3] (cell cycle stage: mitosis) of 55.6 °C. The “solubility change mitosis (log2)” value in data set [4] is -0.0391.

“MKSARAKTPRKPTVKKGSQTNLKDPVGVYCRVRPLGFPDQECCIEVINNTTVQLHTPEGYRLNRNGDYKETQYSFKQVFGTHTTQKELFDVVANPLVNDLIHGKNGLLFTYGVTGSGKTHTMTGSPGEGGLLPRCLDMIFNSIGSFQAKRYVFKSNDRNSMDIQCEVDALLERQKREAMPNPKTSSSKRQVDPEFADMITVQEFCKAEEVDEDSVYGVFVSYIEIYNNYIYDLLEEVPFDPIKPKPPQSKLLREDKNHNMYVAGCTEVEVKSTEEAFEVFWRGQKKRRIANTHLNRESSRSHSVFNIKLVQAPLDADGDNVLQEKEQITISQLSLVDLAGSERTNRTRAEGNRLREAGNINQSLMTLRTCMDVLRENQMYGTNKMVPYRDSKLTHLFKNYFDGEGKVRMIVCVNPKAEDYEENLQVMRFAEVTQEVEVARPVDKAICGLTPGRRYRNQPRGPVGNEPLVTDVVLQSFPPLPSCEILDINDEQTLPRLIEALEKRHNLRQMMIDEFNKQSNAFKALLQEFDNAVLSKENHMQGKLNEKEKMISGQKLEIERLEKKNKTLEYKIEILEKTTTIYEEDKRNLQQELETQNQKLQRQFSDKRRLEARLQGMVTETTMKWEKECERRVAAKQLEMQNKLWVKDEKLKQLKAIVTEPKTEKPERPSRERDREKVTQRSVSPSPVPLSSNYIAQISNGQQLMSQPQLHRRSNSCSSISVASCISEWEQKIPTYNTPLKVTSIARRRQQEPGQSKTCIVSDRRRGMYWTEGREVVPTFRNEIEIEEDHCGRLLFQPDQNAPPIRLRHRRSRSAGDRWVDHKPASNMQTETVMQPHVPHAITVSVANEKALAKCEKYMLTHQELASDGEIETKLIKGDIYKTRGGGQSVQFTDIETLKQESPNGSRKRRSSTVAPAQPDGAESEWTDVETRCSVAVEMRAGSQLGPGYQHHAQPKRKKP [KIF23]”: the thermal stability score in data set [1] (setting [5]) stood at 0.0501; in data set [1] (cell cycle stage: mitosis) it was 0.448. In addition, the “solubility in G1/S (log2)” value in data set [2] is -0.255. The melting temperature in data set [3] (cell cycle stage: G1/S) was 49.3 °C; in data set [3] (cell cycle stage: mitosis) it was 49.6 °C. The “solubility change mitosis (log2)” value in data set [4] is -0.112.
